The subject of this data set is MS2 coat protein. The experiment in a line: apparent KD of MS2 coat protein; designed switch direction (-1 OFF switch, 1 ON switch): -1; higher = weaker reporter binding. In outline: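 Designed RNA switches sharing common flanks were transcribed on Illumina chips by stalled E. coli RNA polymerase. They were titrated with SNAP-549-labelled MS2 coat protein, from 0.7 or 1.5 nM doubling to 3 µM, in Tris-HCl pH 7.5 buffer with KCl, MgCl2, BSA, DTT, tRNA and Tween-20. Titrations ran without input, with 200 uM small-molecule ligand, or with an oligonucleotide input. The apparent KD of each design is the median over its clusters, after curve-fitting of normalised cluster fluorescence.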

[1] abbreviates: input ligand: microRNA oligo, concentration not stated.
[2] abbreviates: Eterna round: R95, input ligand: FMN 200 uM.
Setting [3] is: Eterna round: R95, input ligand: microRNA oligo, concentration not stated.
[4] abbreviates: Eterna round: R95, input ligand: none.

For “UUUAAUUUAAUUAAGAUCACAUGAGGAUCACCCAUGUAUAUAUAGGAUAUCAGCUCGUUUAGAGCUGAGAAGGAUAUAUACAUA [ExNG3/4-A2] (Eterna round: R96, puzzle: Exclusion NG 3)”, the “apparent KD of MS2 coat protein” value came to 433 nM (input ligand: FMN 200 uM), 40.1 nM under setting [1] and 58.2 nM (input ligand: none).
In the same order, the values of “UUGUUCCGUGUAGGAUAUUGGCCUCCCUCGGGCCGAGAAGGACAUGAGGAUCACCCAUGUAUGCUAUUAUCGCGCGUGGCGCAC [Design 94] (Eterna round: R96, puzzle: Exclusion NG 1)” are 330 nM, 23.1 nM and 25.2 nM.
As to “UCCGAACAUGAGGAUCACCCAUGUCAGGAUAUUCGGUUACGUGACAAAUAGUACUAACGAAGAAGGGACAUGCU [Eternabot (L2) Solution 26] (Eterna round: R97, puzzle: Exclusion 1)”, the “apparent KD of MS2 coat protein” value amounted to 79.1 nM (input ligand: FMN 200 uM) and 27.7 nM (input ligand: none).
With “GAAGAAGAGAGAAUAGAAAACAUGAGGAUCACCCAUGUGAGAAGAUGAGGGUGUAGCAGGCUUUUUGCUCGUCUUAU (puzzle: Sensor v3, turn-off variant 1)”, the “apparent KD of MS2 coat protein” value under setting [2] was 32.5 nM, the “apparent KD of MS2 coat protein” value under setting [3] turned out to be 119 nM and the “apparent KD of MS2 coat protein” value under setting [4] is 31.2 nM.
Take “AGCUGUGGCCGAGGAUAUCCACAUGAGGAUCACCCAUGUUGAUACGCCGUUAGGCGAUAUAGAAGGGAGAAGGCGGUCUCAGCA [Eli eng2 - 050] (Eterna round: R96, puzzle: Exclusion NG 2)”: the “apparent KD of MS2 coat protein” value is, setting by setting: (input ligand: FMN 200 uM) 7.84 nM; under setting [1], 7.26 nM; (input ligand: none) 13.7 nM.
In the same order, the values of “GGUAGAGUGGUAGGAUAUCCGUCUGUUUCAGUCGGAGAAGGACCACAGUCACUGGGUCCAUGUUUCAUGGAGACCUGAUCUACC [pwkr exNG1 F6.9] (Eterna round: R96, puzzle: Exclusion NG 1)” are 26.9 nM, 59.7 nM and 130 nM.
As to “UGCGGGCUUUUGAGACCUCACAUGAGGAUCACCCAUGUGCUUGUCUUGUAAGUGGGUAGGUCGUUGGCUGACUCACA [Sensor-V1 #100] (Eterna round: R97, puzzle: Sensor, turn-off variant 1)”, the “apparent KD of MS2 coat protein” value was 18.8 nM (input ligand: FMN 200 uM) and 17.5 nM (input ligand: none).
In the same order, the values of “AAUAUCACAGGAUAUCCGGAUUUGUACAUGAGGAUCACCCAUGUGGUGACGUAGAACUCCGGAGAAGGGUGUCCAG [Eternabot (L2) Solution 89] (Eterna round: R97, puzzle: Exclusion 5)” are 29 nM and 161 nM.
With “AACGACUGAGGAUAUACAUGAGGAUCACCCAUGUAUUGAAAUACGUGCUUGGUCAACUGUAGAAGGCAGAAUAA [Oresza] (puzzle: Exclusion 3)”, under setting [3], the “apparent KD of MS2 coat protein” value was 15.9 nM.
On the same count and under the same terms, next, “GAAUAGGCAGGAUAUACAUGAGGAUCACCCAUGUGCUUGCGCUAGGCACGUGAACAACGUAGAAGGGCCUAGAC [ChP 13.04.2015 #11] (puzzle: Exclusion 3)”: 12.1 nM.
Consider “UUACUAUGUCGCCUAAUAGCUUUUUGCUCGUCUUAUAUUACAUGAGGAUCACCCAUGUAGAUCAUGUGGCGUGACCU [JL ViennaUCT Maridi mod 4] (puzzle: Sensor v3, turn-off variant 2)”, for which the “apparent KD of MS2 coat protein” value is, setting by setting: under setting [2], 246 nM; under setting [3], 39.1 nM; under setting [4], 217 nM.
“ACAUGAGGAUCACCCAUGUCGAGUACAUGAGGAUCACCCAUGUAGGAUAUGGUUCGCUUUGCGUGCUAGAAGGAUAUGUGAUGA [salish99_ExNG3_r04_512] (Eterna round: R96, puzzle: Exclusion NG 3)”: the “apparent KD of MS2 coat protein” value (input ligand: FMN 200 uM) worked out at 488 nM, the “apparent KD of MS2 coat protein” value under setting [1] came to 229 nM and the “apparent KD of MS2 coat protein” value (input ligand: none) was determined as 326 nM.
For “CACCUGAACACAGGAUAUCCUACAUGAGGAUCACCCAUGUAAUAAAUGAGAAUUUCGAAUGUAAUGGAGAAGGGUGGAUAAGGC [Ostracism 89 - Jieux - Exclusion NG 2] (Eterna round: R96, puzzle: Exclusion NG 2)” the same measures were 137 nM, 81.2 nM and 97.2 nM.
As for “GUGUAGAGAGGAUAUACAUGAGGAUCACCCAUGUGAAUAAGAUAGAAUAAGAUAAAGUGUAGAAGGCUUAGUGU [Excluse me!!! 20 - Jieux - Exclusion 3] (puzzle: Exclusion 3)”, the “apparent KD of MS2 coat protein” value under setting [3] came out at 31.8 nM.
For “AAUUAGCAAGCAAGAUCCCACAUGAGGAUCACCCAUGUGCUCGUCUUAUAAGGUACUGUGACGAGAGUCACGGUACC [Mat - Sensor, turn-off var - Eli Mod - D48] (Eterna round: R97, puzzle: Sensor, turn-off variant 1)”, the “apparent KD of MS2 coat protein” value (input ligand: FMN 200 uM) turned out to be 51.5 nM and the “apparent KD of MS2 coat protein” value (input ligand: none) was 50.5 nM.
As to “AAUAACAGAGGAUAUACUAUUUUAUGUGUUUGUUAUUUUGAACAUGAGGAUCACCCAUGUAGAAGGCUGAUUAA [JMF 49] (puzzle: Exclusion 2)”, under setting [3], the “apparent KD of MS2 coat protein” value worked out at 39.4 nM.
With “CCUAAACAUGAGGAUCACCCAUGUGAGGAUAUGCACACCACAACAUGCGGUUGAGGGUGCAGAAGGCAUAUGAG [Eternabot (L1) Solution 60] (Eterna round: R97, puzzle: Exclusion 1)”, the “apparent KD of MS2 coat protein” value (input ligand: FMN 200 uM) worked out at 99.2 nM and the “apparent KD of MS2 coat protein” value (input ligand: none) amounted to 34.2 nM.
“UACAUGAGGAUCACCCAUGUUUUGUCGUGUAUGGUAUUUAUCUAGGAUAUCAAUGUAUUUAGUUAUGAGAAGGAGAAUAUUAAU [JMF's solution 46] (Eterna round: R96, puzzle: Exclusion NG 3)”: the “apparent KD of MS2 coat protein” value reads like this: (input ligand: FMN 200 uM) 38.1 nM; under setting [1], 32 nM; (input ligand: none) 35.3 nM.
In the case of “GACAGACGAGCGUGAGCCGACAUGAGGAUCACCCAUGUGCUCGUCUUAUAACGUACUGUCACGUUAGUGAUAGUGCG [Sensor v3, turn-off variant 1 (MOD of Eli's v1-13 v.4)] (puzzle: Sensor v3, turn-off variant 1)”, the “apparent KD of MS2 coat protein” value was determined as 54.3 nM under setting [2], 42.7 nM under setting [3] and 56.7 nM under setting [4].
In the case of “CUAAUGUAUCAGGAUAUGAUUAUAUGUGUUGGAUCAGAAGGGAUAACAUGAGGAUCACCCAUGUUGUGGAGUGA [JR_Ex6_Sub036] (Eterna round: R97, puzzle: Exclusion 6)”, the “apparent KD of MS2 coat protein” value runs as follows: (input ligand: FMN 200 uM) 202 nM; (input ligand: none) 234 nM.
On to “AAUAACAGAGGAUAUACUAUUUUAUGUGUUUGUUAUUUUAAACAUGAGGAUCACCCAUGUAGAAGGCUGAAUAA [JMF 14] (puzzle: Exclusion 2)”, for which the “apparent KD of MS2 coat protein” value under setting [3] was 19.1 nM.
On to “GGUACUAACACGAUAGUGUUAGUACUAUAAGCUUGUGUUACAUGAGGAUCACCCAUGUCCUCAUAAGCUCGUCUUGA [Mat - Sensor v3 - Turn-off var 2 - D91] (puzzle: Sensor v3, turn-off variant 2)”, for which the “apparent KD of MS2 coat protein” value stood at 38 nM under setting [2], 640 nM under setting [3] and 36 nM under setting [4].
In the case of “UUAAAUCAUGUAGGAUAUGCGUGGCGAAGCUAUGCAGAAGGACAUGAGGAUCACCCAUGUUCUUGCGUCUGCGUACAGAUGCAA [JL ENG1 1.09] (Eterna round: R96, puzzle: Exclusion NG 1)”, the “apparent KD of MS2 coat protein” value came to 118 nM (input ligand: FMN 200 uM), 26 nM under setting [1] and 37.2 nM (input ligand: none).
As for “CGUAGCAAAGUGAGGAUAUCUAGAGCCUCGGCUCUAGAGAAGGCACAUGAGGAUCACCCAUGUGGUCAGCUACG [BmEx4/8-A2] (Eterna round: R97, puzzle: Brourd's mod of Exclusion 4)”, the “apparent KD of MS2 coat protein” value is, setting by setting: (input ligand: FMN 200 uM) 1050 nM; (input ligand: none) 101 nM.
Turning to “CACAAGCUUUUUUGUUGCUUUUUAGUUGGUGUAUGAUAAACAUGAGGAUCACCCAUGUAAUAGAUGCUCGAUCUUUU [JR_SV3TOV2_Sub083] (puzzle: Sensor v3, turn-off variant 2)”, the “apparent KD of MS2 coat protein” value under setting [2] amounted to 24.5 nM, the “apparent KD of MS2 coat protein” value under setting [3] was determined as 21.7 nM and the “apparent KD of MS2 coat protein” value under setting [4] worked out at 27 nM.
In the same order, the values of “GGUUGGCGAGGAUAUACAUGAGGAUCACCCAUGUCAGAGAAAAAAGUGAGGAAGAAAAGUAGAAGGCGCUGACG [salish99_ex3_r3_017] (puzzle: Exclusion 3)” are 199 nM, 210 nM and 118 nM.
For “CGUGACUCAGGAUAUGUAUAAUAUCACAUGAGGAUCACCCAUGUCCAGCGAAAGCUGGAGGCAGAAGGGAGUCACG [Fiskers Ex 5 - 38] (puzzle: Exclusion 5)” the same measures were 43.1 nM, 58.8 nM and 31.9 nM.
As for “UCUCGCGGGCAAGGAUAUCCUACAUUGUUCUGGCCCGGGCAUGUUACAUGAGGAUCACCCAUGUGGGAGAAGGUGCGCCAGGGC [Design 35] (Eterna round: R96, puzzle: Exclusion NG 2)”, the “apparent KD of MS2 coat protein” value (input ligand: FMN 200 uM) worked out at 29.9 nM, the “apparent KD of MS2 coat protein” value under setting [1] amounted to 18.9 nM and the “apparent KD of MS2 coat protein” value (input ligand: none) turned out to be 30.3 nM.
As for “AAUCCACAUGAGGAUCACCCAUGUGAGGAUAUGAUACUAUGUACUUCGGUACAUAGUAUCAGAAGGCACAGGUC [Ex1-3: 58] (puzzle: Exclusion 1)”, the “apparent KD of MS2 coat protein” value under setting [3] came to 25 nM.
For the sequence “UAUCUAUGAGGAUAUCAUAGUAGUUACAUGAGGAUCACCCAUGUCAUGACAGAACUGGGAUGAGAAGGCAUUCGUU [Eternabot (L2) Solution 73] (Eterna round: R97, puzzle: Exclusion 5)”, the “apparent KD of MS2 coat protein” value by setting is: (input ligand: FMN 200 uM) 291 nM; (input ligand: none) 447 nM.

Source of the values: the supplement of paper PMC9170038.
